This is an account of results in the DeepSol protein solubility set.

The series in a line: soluble on expression in E. coli; label from the status in PepcDB or PDB records.
Turning to “MDPTRGLCALSTHDLAKFHSLPPARKAAGKRAHLRCYSKLLSLKSWEQLASFLSLPPGPTFTDFRLFFEVTLGRRIADCVVVALQPYPRCYIVEFKTAMSNTANPQSVTRKAQRLEGTAQLCDCANFLRTSCPPVLGSQGLEVLAALVFKNQRSLRTLQVEFPALGQKTLPTSTTGLLNLLSRWQDGALRARLDRPRPTAQGHRPRTHVGPKPSQLTARVPRSARAGRAGGRKGQVGAVGQVCPGAQK”, the “soluble on expression in E. coli” value is given as “not soluble”.
Regarding “MGSDKIHHHHHHATAPSPDFNEARFRNDIKILSSDAFEGRAPTTAGEKLTLDYLSTAFKAAGLKGTNNGSFLQSVPMVTYNASENQAIRLGNLHPAYRKDIVLGSRHNNQGVEISNAPLVFVGYGIKAPEYDWDDYAGLDMQGKIAVILVNDPGFAAPESGKFKGKAMTYYGRWSYKFEEASRQGALGAIIIHDTAPASYPWSVIENSWTGPQQDLADASQTDSRVQVEGWMTLDTAKALFDEAGLSLDTLSQEAALTPGNHDLKQSADIAFTNSATFTDSYNLVATLPGTDRADEHILFTAHWDHIGKDDSRDGDKIYNGALDNASGVAGIVEIARQFAALDAMGFKNRRSITFIATTGEEQGLLGSRYYAANPLFPIDKTIAVLNLDSTNVFGRTKDFTIVGKGQSQLEDYLVAAAKAQGREAVAEKNPASGGFFRSDHFSFAKLGVSAAFAGGGSIPLDDATATYKAEMQQKMKGCYHNVCDEYRADWDLSGALQDLALYYDVARTLANNEHRPGYYQKSEFYPLRPAN”, the “soluble on expression in E. coli” value was “not soluble”.
For “MDLYYRPGSAPCRSVLMTAKALGVEFDKKTIINTRAREQFTPEYLKINPQHTIPTLHDHGFALWESRAIMVYLVEKYGKDDKLFPKDVQKQALINQRLYFDMGTLYKSFSEYYYPQIFLKKPANEENYKKIEVAFEFLNTFLEGQTYSAGGDYSLADIAFLATVSTFDVAGFDFKRYANVARWYENAKKLTPGWEENWAGCQEFRKYFDN”, the “soluble on expression in E. coli” value was “soluble”.
Under “MSLKKKVVIVGGGFTGLNTARILSNRKDVEVTLIDRKNYHLFQPLLYQVAMAALGEGDIATPLRNMLAGYDNVTVFKGNVCNVDLEQKKVKTDFGDIEYDYLVLACGAQHHYFGKNDWEEHAPGLKNLAQASEIRRRVMEAYEAAERTNDMKERKKQLTFVIVGGGPTGVELAGSIGEMSRYTLSKFYRHIDPKLTRIFIVEAAERILGTFSPELSSKATRELEKLGVQVWTSSMVSDVDADGVQIGRERIEAATVLWAAGVKASEIGQNMGVQTDRSGRIMVEADLSLPGHPEVFVGGDQACYTLENGSTLPGMAPVAMQEGKAIGRMILDDLKGKPRKPFKYRDKGQMATIGRNRAIVEIGNLKFDGEGHHHHHH” stands “soluble”; under “MRGKAWMLTAVALTGLGLAQIRADGSSTVYPITQAVAEEFVTRNPQVRISVAFSGTGAGFQKFCRGETDVQNASRPIRKSELEACQKAGIQFIEIPVAYDALSILVNRQNTWAQCLTTAQLKSIWEPNAKVNYWKDLNPAWPNRRIVLFGAGTDSGTFDYFTEAIMGRAGSIRKDYFPSEDDNVIMRGVTGNPYAMAFVGFAYYEENKDKVKAVAIDHGKGCVLPSRETVLDGTYQPLSRPLFIYVNVKSLDRPEVQAFVDFYLSPAARRAIRSTGYVELPDEAYRIGQGLVARKKTGSFFTDLPPGTPLAKFIEELRKEVQ”, “soluble”.
With “MGSDKIHHHHHHMKFFSLADEAEFKSIIISKNKAVDVIGSKLGGQVVSFSDEWFASAENLIQPTAPIRDPTRFVHSGAWYDGWETRRHNEMEYDWVIIKMGVAAAHIIGGEIDTAFFNGNHAPFVSIEALYDEGEEGNIVEDDSRWVEIVEKFECGPSQRHLFVRGNGLTKERFTHIKLKMYPDGGIARFRLYGRVVPPELKTKDHIIDLAYVCNGAVALKYSDQHFGSVDNLLLPGRGHDMSDGWETKRSRQPGHTDWAVIQLGRESSFIEKIIVDTAHFRGNFPQFITVEGCLKESESSENTGEGTWVELVGKSKTGPDKEHVYEIRKSIRVSHVKLTIIPDGGVKRIRVWGY”, the “soluble on expression in E. coli” value is reported as “soluble”.
Under “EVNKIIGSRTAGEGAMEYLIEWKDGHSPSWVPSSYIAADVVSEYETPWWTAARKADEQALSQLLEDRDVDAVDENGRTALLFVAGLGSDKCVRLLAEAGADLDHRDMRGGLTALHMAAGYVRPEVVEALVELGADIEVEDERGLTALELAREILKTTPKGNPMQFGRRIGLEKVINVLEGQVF” stands “soluble”; under “GEVDMTIRGNITYSKNEVLEKDEENQVYSYLYQKGYRVDQVKGLIAEGLFADYDDIRTSPKQEFGTVQPGDIKYKDVNGDGVVNDNDKVAIGATTTPNLVYGIGASFAWKGIDVNVHFQGAGKSTFPIYGKCVYAFSESDWGNIFKDMISDRWVDSETAAKLGLHANENPNATYPRLTYGENKNNQQTSTYWMRDGRYIRLKNLDIGYTLPKSIVNKLHFNNIRIYIAGSNLITWSKFKTWDPETGNPRGEAYPLTKSVTMGLSVNL”, “not soluble”.
Under “LGQTAYQKDSLARLARRGDELGTLARDFNRMGERLQSLIGSQRQLLRDVSHELRSPLARLRIALALAERAEPEARAQMWPRLEQECDRLEALIGEILALARLDAEPGASQRIALLPLLQRLREDALLLAPEQDIRLEVAPDLSIDGWPDMFERAVDNLLRNAVRFNPVGQPLEVRASSAGDYLRLSVRDHGPGIAAELQEQLGEPFFRAPNQSSPGHGLGLAIARRAIERHGGHLRLGNHPDGGFIATLSLPLRRKAT” stands “not soluble”.
In the case of “MNQIWLKVCAASDMQPGTIRRVNRVGAAPLAVYRVGDQFYATEDTCTHGIASLSEGTLDGDVIECPFHGGAFNVCTGMPASSPCTVPLGVFEVEVKEGEVYVAGEKKLEHHHHHH”, the “soluble on expression in E. coli” value is recorded as “soluble”.
Under “MGSDKIHHHHHHMKSTTVPSEGGGGLDATTRTSVQPHPLHGPDATWQETNCYIDLWIELLHAWGLDPRAALPFTVAQDFEGDHFTFFKYPQADLETLYGTVVQEMAVYDTLQAHVVTQVERGHTVLVEVDSYYLPDTHATAYKREHVKTTVAIDNIDPHAQRLSYFHSLGYHSAHDEDYRGLMRLSRELSGNGNILFPYAECAKRVRPALTMPAMADASVALMRQHLDRLPAINPVTLWRREFDAHMDTLLARDDAYFHLYTFNLPRQLGANFEMLHHWLRWLDEQGRGNPLAARAAESAATIAAEAKVLQFRLARAVARRRADPCTQSLDVLECCYDKTVEGLLSAFGDTRLAAA” stands “not soluble”; under “MSLKKILIIVPDGGMLFESAGIADILMQANRLHPEGAREICYQVKLATTQPHQVIHGQSGLNLLADHRLHEIDPREPLDTIMITGRGQNPQEGMAVVDWLRLAAPHARRIVSICGGAMLLAQTGLLDGRRATTHWKLLETMQAEFPQIRVEGGPLYIQDEHIWTSGGVSSGFDLTLALVEEDYGEGHHHHHH”, “not soluble”.
Under “MKTFTVQFHREDDVEAMNVGKLSQEDFDKATEGGTRHLFDLDTNIGYFVFFDAEDNEGKVSYLMLQYEEDNEDPSACYSFELKDFYEFMALYLNDLEFAEEEEMAEDGEEEYGPIHHLAHLLYHIVEKGKTVEV” stands “not soluble”.
Under “MTEPSTSGAQDHDDYLVTLSSPQRQCTIRVVQPASALKRKLPTSSVPEFNPDSYGESIPENAPRPVCETCSVAWSTWAAYEFHMLQTHIIYRPFRCSGCRNLNFHTEDEGKHHLEHFHGGKPGSFQLIKQTDFAKENQLIECLENAKTTEQLGISKERLENGLKMIEKLQKIKFKAVKVHLPCCLRHEMISKHTETEKEAPPQEKSVTNAQKPGNPALLSLESRNYDYEQQDTVGI” stands “not soluble”.
For “MFQRLFGRERHANRAITDALYAQIVAAARQTVFYSHWNVPDTPLGRFEMLSLHMFLFQHRLRGEGGVAQEIAQVLIDEFFLDVDHSLRELGIGDVGVPKRMKKLAKMFYGRTAAYDDALDRNDRDGLTAALARNVRPDAGTWPEAPQLADYVADACRQLAAQPSQSIVSGTAVFPLAKGGALEHHHHHH”, the “soluble on expression in E. coli” value is reported as “not soluble”.
In the case of “MMGMAVSTKLSIDEVNMLEKEDFVTKIGPIFEHSPWVAERAWAHRPFTSAENMYECMLEKVYEADKRLQLALLRAHPDLGTRLEISETSQSEQQRAGLSQLTEEEFAVFAELNKCYVDTFRFPFIMAVRGQTKNSIKEQMRKRLVNDEEQERKTALREVAKIAKFRLADLVVMGSRSLEHHHHHH”, the “soluble on expression in E. coli” value is recorded as “soluble”.
